Measurements published in US20020177180A1, “pH-indicator based assay for selective enzymes” (ThermoGen, Inc., priority 1998, published 2002).

What was measured:
Type in all cases: biochemical
[1] = Quick E of chromogenic ester with resorufin tetradecanoate reference; details: substrate 1
Procedure: To reintroduce competition, resorufin tetradecanoate was added as a reference compound, FIG. 7. The initial rates of hydrolysis of (S)-1 were monitored at 404 nm and the reference compound at 572 nm in the same solution. After taking into account the initial concentrations of both substrates, the ratio of these rates yielded the selectivity of the hydrolase for (S)-1 over the reference compound, Eq 8.
A second experiment using (R)-1 and the reference compound yielded the selectivity of (R)-1 over the reference compound. The ratio of these two selectivities yields the enantiomeric ratio, Eq. 9.
Substrate solutions were the same as for separately measured initial rate measurements, but a solution of resorufin tetradecanaote 6 (0.5 mL of a 1.59 mM solution in acetonitrile) was added slowly to the vortexing solutions of pure enantiomers. It was necessary to use a 2-fold increase in the concentration of Triton X-100 to solubilize resorufin tetradecanoate. The emulsions remained clear for at least 2 hours. To measure the initial rates of hydrolysis, lipase solutions from Table 4 (100 μL) was added to the substrate emulsion (900 μL) in a cuvette at 25° C. and the linear increase in absorbances at 404 nm and 574 nm were monitored for 15 s. Rates are calculated in μmol/min/mg protein after taking into account the amount of protein in each cuvette. […] No spontaneous chemical hydrolysis was detected at 404 nm or 574 nm.

[2] = Separately measured initial rates of chromogenic esters (404 nm), estimated E; details: substrate 1
Procedure: The initial rates of hydrolysis of 4-nitrophenyl esters of pure enantiomers were determined to quickly estimate the enantioselectivity of several lipases towards three common chiral carboxylic acids: 2-phenylpropanoic acid, p-nitro phenyl ester (or, 4-nitrophenyl 2-phenylpropanoate), 1; 2-(4-isobutylphenyl)propanoic acid (commercially available as Ibuprofen), 2; and phenylalanine, 3, FIG. 5. The rates of hydrolysis of 4-nitrophenyl esters were conveniently determined spectrophotometrically by monitoring the rate of release of 4-nitrophenoxide anion at 404 nm, FIG. 6. The ratio of separately measured initial rates of hydrolysis estimated the enantioselectivity. The quick E of phenylalanine, 3, was not measured because of its instability in aqueous solution.
Separately measured initial rates of chromogenic esters. 4-nitrophenyl esters of 2- phenylpropanoic acid, 1, and 2-(4-isobutylphenyl)propanoic acid, 2, were emulsified in aqueous solutions according to Vorderwuibecke. A solution of (R) or (S)-4-nitrophenyl-esster (500 μL of a 7.8 mM solution in acteonitrile) was added dropwise to Tris buffer (9000 μL, 50 mM, pH 7.5) containing 0.45 w/v % Triton X-100 (Pierce Surfact-Amps) and vortexed until clear. This emulsion remained clear for at least 3 hours. To measure the initial rates of hydrolysis, lipase solutions from Table 3 (100 μL) were added to the substrate emulsion (900 μL) in a cuvette at 25° C. and the linear increase in absorbance at 404 nm was monitored for 15 s. The final concentrations in the cuvettes were 0.369 mM substrate, 0.39% Triton X-100, 45 mM Tris buffer, 4.76% acetonitrile. No spontaneous chemical hydrolysis was detected. Solutions of 4-nitrophenyl esters of phenylalanine, 3, in acetonitrile (5 IL of a 50 mM solution in acetonitrile) were added to HEPES buffer (1000 μL, 10 mM , pH 7.5). To measure the rates of hydrolysis, 5 μL of ANL solution was added and the change in absorbance monitored as above.

[3] = Endpoint method: small-scale enzyme-catalyzed hydrolysis, ee by HPLC, true E; details: substrate 1
[4] = pH-indicator (4-nitrophenol/BES) microplate screening of commercial hydrolases, initial rates of hydrolysis; details: for Activity (R): (R)-solketal butyrate 1.0 mM; for Activity (R) / Activity (S) / Activity (±): pH 7.2, 7.1% acetonitrile, 25° C.; for Activity (S): (S)-solketal butyrate 1.0 mM; for Activity (±): (±)-solketal butyrate 1.0 mM, specific activity; for Estimated E: without Triton X-100
Procedure: The hydrolases were dissolved in BES buffer (5.0 mM, pH 7.2) at the concentrations listed in Table 1 (0.5-40 mg solid/mL solution). […] CaCl2 (2 mM) was added to the protease solutions since some proteases require calcium ions to maintain their structure. For hydrolase samples with low protein content, saturated solutions (up to 40 mg solid/ml) were utilized for hydrolase samples and with high protein content were utlized, lower concentrations (typically, 1 mg solid/ml) were utilized. Each solution was centrifuged to remove insoluble material (5 min, 2,000 rpm) and titrated to a final pH of 7.2. The protein concentrations were determined using a dye-binding assay from Bio-Rad (Mississauga, ON) with bovine serum albumin (BSA) as the standard. Solutions were stored in a 96-well assay block ‘mother plate’ equipped with aluminum sealing tape (2 mL maximum volume in each well, Corning Costar, Acton, Mass.) at −20° C.
Hydrolase solutions (5 μL/well) were transferred from the mother plate to a 96-well microtiter plate using an 8-channel pipette. Assay solution (100 μL/well) was quickly added to each well using a 1,200 μL 8-channel pipette. The final concentrations in each well were 1.0 mM substrate, 4.65 mM BES, 0.434 mM 4-nitrophenol, 7.1% acetonitrile. The plate was quickly placed in the microplate reader, shaken for 10 s to ensure complete mixing and the decrease in absorbance at 404 nm was monitored at 25° C. as often as permitted by the microplate software, typically every 11 seconds. […] Data were collected for one hour to ensure slow reactions and reactions with a lag time were detected. Each hydrolysis was carried out in quadruplicate and was averaged. […] For this reason. the first 10 s of data was typically deleted from the calculation of the initial rate. Activities were calculated from slopes in the linear portion of the curve usually over the first two hundred seconds. […] To calculate specific activity (μmol/min/mg protein), the total amount of protein in each well was taken into account.
The assay was used to screen for enantioselective hydrolases in 96-well microplates. Using pure enantiomers, the initial rates of hydrolysis of each enantiomer of solketal butyrate was measured separately. […] Note that the ratio of separately measured initial rates of hydrolysis of the enantiomers is not the true enantioselectivity, so this screening provides only an estimated enantioselectivity. The true enantioselectivity is the ratio of the specificity constants (kcat/KM) for each enantiomer. By measuring initial rates of the enantiomers separately, competitive binding between the two enantiomers was eliminated. At saturating substrate conditions, the relative initial rates equal the relative kcat values; at partially saturating conditions, the initial rates also depend on the KM values. Thus, the ratio of separately measured initial rates ignores some or all of the effect of KM on enantioselectivity. In spite of this inaccuracy, the relative initial rate provides an estimated enantioselectivity.

[5] = pH-indicator screening under interfacial activation conditions (Triton X-100); details: 2.8 mM Triton X-100 in the wells
Procedure: The procedure was the same as above except that the BES buffer (5 mM, pH 7.2) contained Triton-X 100 (8.45 mM). Final concentration of Triton X-100 in the wells was 2.8 mM.
The reaction conditions in the assay were altered in an attempt to increase the estimated enantioselectivity toward solketal butyrate. For example, the activity of hydrolases, especially lipases, often increases in the presence of an interface. It was reasoned that this interfacial activation may also change the enantioselectivity. The hydrolase library was screened with Triton X-100 (a non-ionic detergent) added to create micelles. The reaction rates increased for eight hydrolases (three lipases and five esterases), decreased for thirty-two hydrolases, and stayed constant for twelve hydrolases. Unfortunately, the estimated enantioselectivities remained unchanged or decreased slightly for the best hydrolases: AOP (decrease from 4.9 to 4.2), ROL (decrease from 11.3 to 9.6), HLE (decrease from 12.2 to 7.6), BSP (decrease from 7.3 to 5.4). […] For example, subtilisin Carlsberg increased from 2.6 to 2.8, esterase from Bacillus stearothermophilus increased from 1.7 to 2.4 and Aspergillus oryzae lipase decreased from 4.95 to 1.8.

[6] = 0.37 mM substrate, 0.38% Triton X-100, 45.2 mM Tris Buffer, 4.76% acetonitrile
[7] = ratio of separately measured initial rates of the enantiomers

| Molecule | (R)-enantiomer + ref, rate 404 nm ([1]; 0.351 mM (R)-ester + 0.071 mM resorufin tetradecanoate, Tris pH 8, 25°) [μmol/min/mg protein] | (S)-enantiomer + ref, rate 404 nm ([1]; 0.351 mM (S)-ester + 0.071 mM resorufin tetradecanoate, Tris pH 8, 25°) [μmol/min/mg protein] | Quick E ([1]; error = standard deviation for 3 measurements) | (R)-enantiomer + ref, rate 574 nm ([1]; reference hydrolysis in presence of (R)-ester) [μmol/min/mg protein] | (S)-enantiomer + ref, rate 574 nm ([1]; reference hydrolysis in presence of (S)-ester) [μmol/min/mg protein] | Initial Rate (R) [2, 6] [μmol/min/mg protein] | Initial Rate (S) [2, 6] [μmol/min/mg protein] | Estimated E ([2]; ratio of separately measured initial rates) | C [3] | eep [3] | Endpoint E ([3]; Tris buffer pH 8.0, room temperature) | Activity (R) [4] [μmol/min/mg protein] | Activity (S) [4] [μmol/min/mg protein] | Activity (±) [4] [μmol/min/mg protein] | Estimated E [4, 7] | Estimated E [4] | estimated enantioselectivity with Triton X-100 [5] | Estimated E ([4]; ratio of separately measured initial rates of the enantiomers, listed as subtilisin Carlsberg) |
| --- | --- | --- | --- | --- | --- | --- | --- | --- | --- | --- | --- | --- | --- | --- | --- | --- | --- | --- |
| Porcine pancreas: commercial lipase from porcine pancreas (protein, UniProt P00591 1-450, looked up) Pancreatic triacylglycerol …: SEVCFPRLGCFSDDAPWAGIVQRPLKILPWSPKDVDTRFLLYTNQNQNNYQELVADPSTITNSNFRMDRKTRFIIHGFIDKGEEDWLSNICKNLFKVESVNCICVDWKGGSRTGYTQASQNIRIVGAEVAYFVEVLKSSLGYSPSNVHVIGHSLGSHAAGEAGRRTNGTIERITGLDPAEPCFQGTPELVRLDPSDAKFVDVIHTDAAPIIPNLGFGMSQTVGHLDFFPNGGKQMPGCQKNILSQIVDIDGIWEGTRDFVACNHLRSYKYYADSILNPDGFAGFPCDSYNVFTANKCFPCPSEGCPQMGHYADRFPGKTNGVSQVFYLNTGDASNFARWRYKVSVTLSGKKVTGHILVSLFGNEGNSRQYEIYKGTLQPDNTHSDEFDSDVEVGDLQKVKFIWYNNNVINPTLPRVGASKITVERNDGKVYDFCSQETVREEVLLTLNPC | 0.000659 | 0.00105 | 1.4 ± 0.2 | 0.00437 | 0.000495 | 0.00403 | 0.0059 | 1.4 ± 0.1 | 4.0 | 2.0 | 1.1 ± 0.1 |  |  |  |  |  |  |  |
| Themsolysin, Type X: commercial protease (protein, UniProt P00800 233-548, looked up) Thermolysin: ITGTSTVGVGRGVLGDQKNINTTYSTYYYLQDNTRGNGIFTYDAKYRTTLPGSLWADADNQFFASYDAPAVDAHYYAGVTYDYYKNVHNRLSYDGNNAAIRSSVHYSQGYNNAFWNGSQMVYGDGDGQTFIPLSGGIDVVAHELTHAVTDYTAGLIYQNESGAINEAISDIFGTLVEFYANKNPDWEIGEDVYTPGISGDSLRSMSDPAKYGDPDHYSKRYTGTQDNGGVHINSGIINKAAYLISQGGTHYGVSVVGIGRDKLGKIFYRALTQYLTPTSNFSQLRAAAVQSATDLYGSTSQEVASVKQAFDAVGVK |  |  |  |  |  |  |  |  |  |  |  | 0.255 | 0.738 | 0.095 | 2.89 | 5 |  |  |
| Subtilisin Carlsberg: commercial protease (protein, UniProt P00780 106-379, looked up) Subtilisin Carlsberg: AQTVPYGIPLIKADKVQAQGFKGANVKVAVLDTGIQASHPDLNVVGGASFVAGEAYNTDGNGHGTHVAGTVAALDNTTGVLGVAPSVSLYAVKVLNSSGSGSYSGIVSGIEWATTNGMDVINMSLGGASGSTAMKQAVDNAYAKGVVVVAAAGNSGSSGNTNTIGYPAKYDSVIAVGAVDSNSNRASFSSVGAELEVMAPGAGVYSTYPTNTYATLNGTSMASPHVAGAAALILSKHPNLSASQVRNRLSSTATYLGSSFYYGKGLINVEAAAQ |  |  |  |  |  |  |  |  |  |  |  | 0.213 | 0.082 | 0.083 | 2.60 |  | 2.8 | 2.6 |
| Proteinase K: commercial protease (protein, UniProt P06873 106-384, looked up) Proteinase K: AAQTNAPWGLARISSTSPGTSTYYYDESAGQGSCVYVIDTGIEASHPEFEGRAQMVKTYYYSSRDGNGHGTHCAGTVGSRTYGVAKKTQLFGVKVLDDNGSGQYSTIIAGMDFVASDKNNRNCPKGVVASLSLGGGYSSSVNSAAARLQSSGVMVAVAAGNNNADARNYSPASEPSVCTVGASDRYDRRSSFSNYGSVLDIFGPGTSILSTWIGGSTRSISGTSMATPHVAGLAAYLMTLGKTTAASACRYIADTANKGDLSNIPFGTVNLLAYNNYQA |  |  |  |  |  |  |  |  |  |  |  | 3.08 | 2.29 | 2.14 | 1.24 |  |  |  |
